Here are results for 3 substances from patent US20250144178A1, “PHARMACEUTICAL COMPOSITION FOR CANCER TREATMENT COMPRISING FUSION PROTEIN INCLUDING IL-12 AND ANTI-FAP ANTIBODY AND ANTICANCER AGENT” (KANAPH THERAPEUTICS INC., priority 2022, published 2025).

The target of assay [1] is mouse FAP (fibroblast activation protein alpha) overexpressed in B16F10 cells (B16F10-mFAP) (mouse) (UniProt P97321). Briefly: flow cytometry on B16F10-mFAP cells, anti-mouse IgG2a antibody alone. In general terms: A flow cytometer gives signals particle by particle.
The next assay has as its target B16F10. Briefly: flow cytometry on parental B16F10 cells, anti-mouse IgG2a antibody alone.
Assay [2] has as its target human FAP (fibroblast activation protein alpha) overexpressed in HEK293 cells (HEK293-hFAP) (human) (UniProt Q12884). The experiment in a line: flow cytometry on HEK293-hFAP cells, anti-human IgG antibody alone.
The target of assay [3] is IL-12 receptor of human T cells (human) (UniProt P42701). Briefly: cell-based or functional assay.
Sequence of IL-12 receptor of human T cells (human) (Q99665 24-862, chain 2 of 2, other chains not shown): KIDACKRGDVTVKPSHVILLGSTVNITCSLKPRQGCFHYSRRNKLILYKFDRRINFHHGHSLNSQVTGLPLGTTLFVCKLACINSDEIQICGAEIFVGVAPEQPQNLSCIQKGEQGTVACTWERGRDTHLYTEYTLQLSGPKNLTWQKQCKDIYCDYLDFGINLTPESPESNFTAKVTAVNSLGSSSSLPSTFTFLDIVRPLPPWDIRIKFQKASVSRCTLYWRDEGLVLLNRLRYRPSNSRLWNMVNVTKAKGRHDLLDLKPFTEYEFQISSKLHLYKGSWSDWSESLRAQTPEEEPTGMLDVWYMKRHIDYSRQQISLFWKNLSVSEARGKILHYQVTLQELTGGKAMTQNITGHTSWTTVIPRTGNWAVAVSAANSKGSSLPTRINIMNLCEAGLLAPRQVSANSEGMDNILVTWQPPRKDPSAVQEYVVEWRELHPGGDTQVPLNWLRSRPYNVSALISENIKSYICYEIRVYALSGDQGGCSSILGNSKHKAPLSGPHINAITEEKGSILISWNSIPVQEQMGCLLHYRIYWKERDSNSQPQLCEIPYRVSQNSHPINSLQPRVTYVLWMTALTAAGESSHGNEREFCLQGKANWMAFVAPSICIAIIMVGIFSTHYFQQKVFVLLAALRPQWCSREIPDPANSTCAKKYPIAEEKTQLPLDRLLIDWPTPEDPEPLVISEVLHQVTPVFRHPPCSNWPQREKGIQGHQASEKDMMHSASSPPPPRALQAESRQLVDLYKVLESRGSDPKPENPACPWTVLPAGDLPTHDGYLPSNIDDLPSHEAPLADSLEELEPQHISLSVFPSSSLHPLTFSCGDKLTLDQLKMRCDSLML

Sequence of human FAP (fibroblast activation protein alpha) overexpressed in HEK293 cells (HEK293-hFAP) (human) (Q12884 whole entry): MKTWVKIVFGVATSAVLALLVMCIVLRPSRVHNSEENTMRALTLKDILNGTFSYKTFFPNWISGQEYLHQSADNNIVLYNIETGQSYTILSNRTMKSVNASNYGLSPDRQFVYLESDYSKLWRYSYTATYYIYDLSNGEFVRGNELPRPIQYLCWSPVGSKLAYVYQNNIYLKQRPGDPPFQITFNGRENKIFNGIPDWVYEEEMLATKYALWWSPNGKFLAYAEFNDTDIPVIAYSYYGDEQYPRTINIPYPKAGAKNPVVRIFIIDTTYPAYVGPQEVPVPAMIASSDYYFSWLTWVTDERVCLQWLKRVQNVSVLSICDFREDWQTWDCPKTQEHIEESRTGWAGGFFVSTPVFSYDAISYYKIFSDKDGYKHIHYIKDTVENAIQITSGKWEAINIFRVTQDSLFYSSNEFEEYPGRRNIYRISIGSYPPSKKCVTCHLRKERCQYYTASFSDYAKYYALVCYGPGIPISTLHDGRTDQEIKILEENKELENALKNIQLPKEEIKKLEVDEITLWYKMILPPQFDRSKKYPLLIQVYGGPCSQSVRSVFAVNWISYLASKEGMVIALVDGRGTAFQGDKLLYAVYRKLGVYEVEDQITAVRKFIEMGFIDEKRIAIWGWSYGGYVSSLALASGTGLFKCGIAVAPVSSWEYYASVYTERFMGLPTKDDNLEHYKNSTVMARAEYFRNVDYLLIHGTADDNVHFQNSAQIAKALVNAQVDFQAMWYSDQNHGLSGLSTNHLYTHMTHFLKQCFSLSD
Sequence of mouse FAP (fibroblast activation protein alpha) overexpressed in B16F10 cells (B16F10-mFAP) (mouse) (P97321 whole entry): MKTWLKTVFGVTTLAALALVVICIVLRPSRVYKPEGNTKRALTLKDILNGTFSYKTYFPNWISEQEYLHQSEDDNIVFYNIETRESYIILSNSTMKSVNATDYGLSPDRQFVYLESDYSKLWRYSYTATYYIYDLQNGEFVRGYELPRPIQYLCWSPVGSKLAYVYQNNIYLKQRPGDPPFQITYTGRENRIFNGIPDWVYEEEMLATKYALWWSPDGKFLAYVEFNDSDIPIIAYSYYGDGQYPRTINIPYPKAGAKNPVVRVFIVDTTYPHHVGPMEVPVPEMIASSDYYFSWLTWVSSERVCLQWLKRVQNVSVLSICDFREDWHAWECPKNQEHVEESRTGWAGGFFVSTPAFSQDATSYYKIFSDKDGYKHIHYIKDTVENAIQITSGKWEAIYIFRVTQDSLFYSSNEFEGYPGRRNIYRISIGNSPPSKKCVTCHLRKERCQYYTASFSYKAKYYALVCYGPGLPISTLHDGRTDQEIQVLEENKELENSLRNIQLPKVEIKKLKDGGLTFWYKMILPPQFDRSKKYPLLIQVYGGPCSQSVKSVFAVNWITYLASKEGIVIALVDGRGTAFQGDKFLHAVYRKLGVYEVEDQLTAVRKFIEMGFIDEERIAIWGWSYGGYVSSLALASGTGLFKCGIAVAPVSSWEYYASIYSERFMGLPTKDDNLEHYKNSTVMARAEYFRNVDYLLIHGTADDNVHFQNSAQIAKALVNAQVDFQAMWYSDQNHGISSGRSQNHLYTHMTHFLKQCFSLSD

Regarding 2nd Ab only (antibody), the percent of cells in the positive gate (mFAP-PE) amounted to 3.44% in assay [1] and 1.04% with B16F10. With 2nd only (antibody), in assay [2], the percent of cells in the positive gate (hFAP-PE) was 0.16%. Take “recombinant human IL-12 (from UniProt P29459 23-219; P29460 23-328) (ligand)”: the half maximal effective concentration (EC50) of p-STAT4 (Tyr693), AlphaLISA, activated human T cells in assay [3] came out at 8.95 pM.
